Experimental data from patent US20130052191A1 (Sanofi, published 2013).
Residue numbers refer to the chain shown, from its start. Numbers in names are those of the source.

B1: anti-VLA-2 IgG1-S298A/S324N (antibody)
heavy: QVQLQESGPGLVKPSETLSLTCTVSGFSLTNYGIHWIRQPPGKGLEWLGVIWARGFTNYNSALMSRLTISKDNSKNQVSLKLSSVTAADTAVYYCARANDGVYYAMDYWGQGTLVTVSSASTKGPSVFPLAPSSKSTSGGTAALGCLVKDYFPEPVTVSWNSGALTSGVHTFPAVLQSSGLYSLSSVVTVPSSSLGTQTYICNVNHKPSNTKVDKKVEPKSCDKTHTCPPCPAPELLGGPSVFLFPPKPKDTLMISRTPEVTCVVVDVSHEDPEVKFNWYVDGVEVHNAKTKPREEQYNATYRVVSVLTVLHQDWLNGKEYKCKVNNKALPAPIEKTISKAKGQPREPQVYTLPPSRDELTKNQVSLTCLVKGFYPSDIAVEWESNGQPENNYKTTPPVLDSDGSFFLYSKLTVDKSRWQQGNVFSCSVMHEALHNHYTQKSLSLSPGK
light: DFVMTQSPAFLSVTPGEKVTITCSAQSSVNYIHWYQQKPDQAPKKLIYDTSKLASGVPSRFSGSGSGTDYTFTISSLEAEDAATYYCQQWTTNPLTFGQGTKVEIKRTVAAPSVFIFPPSDEQLKSGTASVVCLLNNFYPREAKVQWKVDNALQSGNSQESVTEQDSKDSTYSLSSTLTLSKADYEKHKVYACEVTHQGLSSPVTKSFNRGEC
B2: anti-VLA-2 IgG1 (antibody)
heavy: not shown
light: B1 light
B3: anti-VLA-2 IgG1-E269D/S298A/S324N (antibody)
heavy: QVQLQESGPGLVKPSETLSLTCTVSGFSLTNYGIHWIRQPPGKGLEWLGVIWARGFTNYNSALMSRLTISKDNSKNQVSLKLSSVTAADTAVYYCARANDGVYYAMDYWGQGTLVTVSSASTKGPSVFPLAPSSKSTSGGTAALGCLVKDYFPEPVTVSWNSGALTSGVHTFPAVLQSSGLYSLSSVVTVPSSSLGTQTYICNVNHKPSNTKVDKKVEPKSCDKTHTCPPCPAPELLGGPSVFLFPPKPKDTLMISRTPEVTCVVVDVSHDDPEVKFNWYVDGVEVHNAKTKPREEQYNATYRVVSVLTVLHQDWLNGKEYKCKVNNKALPAPIEKTISKAKGQPREPQVYTLPPSRDELTKNQVSLTCLVKGFYPSDIAVEWESNGQPENNYKTTPPVLDSDGSFFLYSKLTVDKSRWQQGNVFSCSVMHEALHNHYTQKSLSLSPGK
light: B1 light
B4: anti-VLA-2 IgG1-E269D (antibody)
heavy: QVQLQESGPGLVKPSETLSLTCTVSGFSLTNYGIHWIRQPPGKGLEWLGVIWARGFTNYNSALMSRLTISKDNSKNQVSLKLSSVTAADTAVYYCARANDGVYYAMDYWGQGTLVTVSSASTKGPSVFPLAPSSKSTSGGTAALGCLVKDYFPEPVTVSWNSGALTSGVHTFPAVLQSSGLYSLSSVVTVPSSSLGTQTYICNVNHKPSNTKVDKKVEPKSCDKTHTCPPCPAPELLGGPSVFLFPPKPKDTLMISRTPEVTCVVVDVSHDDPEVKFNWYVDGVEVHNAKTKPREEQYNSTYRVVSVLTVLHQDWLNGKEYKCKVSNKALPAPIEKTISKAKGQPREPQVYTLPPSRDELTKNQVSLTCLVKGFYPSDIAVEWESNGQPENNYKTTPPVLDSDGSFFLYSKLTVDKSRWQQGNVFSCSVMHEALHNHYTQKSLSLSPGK
light: B1 light
B5: anti-VLA-2 IgG1-S298A (antibody)
heavy: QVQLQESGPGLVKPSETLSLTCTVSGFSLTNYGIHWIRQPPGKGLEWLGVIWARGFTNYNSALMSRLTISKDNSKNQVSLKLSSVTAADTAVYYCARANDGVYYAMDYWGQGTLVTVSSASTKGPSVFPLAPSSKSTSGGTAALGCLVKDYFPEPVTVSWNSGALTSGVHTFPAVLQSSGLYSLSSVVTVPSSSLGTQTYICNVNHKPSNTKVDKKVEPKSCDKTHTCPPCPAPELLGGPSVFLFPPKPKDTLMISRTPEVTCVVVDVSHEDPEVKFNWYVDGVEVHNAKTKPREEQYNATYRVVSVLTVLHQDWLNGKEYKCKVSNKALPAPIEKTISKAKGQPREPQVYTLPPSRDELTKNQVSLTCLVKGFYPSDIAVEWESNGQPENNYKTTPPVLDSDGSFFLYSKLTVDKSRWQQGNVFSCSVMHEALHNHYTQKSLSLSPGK
light: B1 light
B6: anti-VLA-2 IgG3 (antibody)
heavy: QVQLQESGPGLVKPSETLSLTCTVSGFSLTNYGIHWIRQPPGKGLEWLGVIWARGFTNYNSALMSRLTISKDNSKNQVSLKLSSVTAADTAVYYCARANDGVYYAMDYWGQGTLVTVSSASTKGPSVFPLAPCSRSTSGGTAALGCLVKDYFPEPVTVSWNSGALTSGVHTFPAVLQSSGLYSLSSVVTVPSSSLGTQTYTCNVNHKPSNTKVDKRVELKTPLGDTTHTCPRCPEPKSCDTPPPCPRCPEPKSCDTPPPCPRCPEPKSCDTPPPCPRCPAPELLGGPSVFLFPPKPKDTLMISRTPEVTCVVVDVSHEDPEVQFKWYVDGVEVHNAKTKPREEQYNSTFRVVSVLTVLHQDWLNGKEYKCKVSNKALPAPIEKTISKTKGQPREPQVYTLPPSREEMTKNQVSLTCLVKGFYPSDIAVEWESSGQPENNYNTTPPMLDSDGSFFLYSKLTVDKSRWQQGNIFSCSVMHEALHNRFTQKSLSLSPGK
light: B1 light
B7: anti-VLA-2 IgG1-S324N (antibody)
heavy: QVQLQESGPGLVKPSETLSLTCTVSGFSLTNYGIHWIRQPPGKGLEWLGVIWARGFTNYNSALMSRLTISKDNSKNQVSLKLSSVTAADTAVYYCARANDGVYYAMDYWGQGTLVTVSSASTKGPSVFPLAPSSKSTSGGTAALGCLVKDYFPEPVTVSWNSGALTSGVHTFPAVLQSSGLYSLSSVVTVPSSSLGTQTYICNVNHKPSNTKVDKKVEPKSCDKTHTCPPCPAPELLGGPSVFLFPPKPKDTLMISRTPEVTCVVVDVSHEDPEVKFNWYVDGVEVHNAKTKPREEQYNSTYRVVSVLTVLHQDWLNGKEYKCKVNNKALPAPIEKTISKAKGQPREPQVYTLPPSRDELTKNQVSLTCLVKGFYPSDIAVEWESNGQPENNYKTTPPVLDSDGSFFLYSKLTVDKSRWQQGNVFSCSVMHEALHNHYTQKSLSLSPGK
light: B1 light
B8: anti-VLA-2 IgG-1133 (antibody)
heavy: QVQLQESGPGLVKPSETLSLTCTVSGFSLTNYGIHWIRQPPGKGLEWLGVIWARGFTNYNSALMSRLTISKDNSKNQVSLKLSSVTAADTAVYYCARANDGVYYAMDYWGQGTLVTVSSASTKGPSVFPLAPSSKSTSGGTAALGCLVKDYFPEPVTVSWNSGALTSGVHTFPAVLQSSGLYSLSSVVTVPSSSLGTQTYICNVNHKPSNTKVDKKVEPKSCDKTHTCPPCPAPELLGGPSVFLFPPKPKDTLMISRTPEVTCVVVDVSHEDPEVQFKWYVDGVEVHNAKTKPREEQYNSTFRVVSVLTVLHQDWLNGKEYKCKVSNKALPAPIEKTISKTKGQPREPQVYTLPPSREEMTKNQVSLTCLVKGFYPSDIAVEWESSGQPENNYNTTPPMLDSDGSFFLYSKLTVDKSRWQQGNIFSCSVMHEALHNRFTQKSLSLSPGK
light: B1 light
B9: anti-VLA-2 IgG-3133 (antibody)
heavy: B8 heavy with S133C, K135R, I201T, K216R
light: B1 light

The binders below were run against α2β1 integrin (VLA-2) on HT1080 cells (UniProt P17301 30-1181; P05556 21-798) (assay: cell-based or functional assay).
Chain of α2β1 integrin (VLA-2) on HT1080 cells (P17301 30-1181, chain 1 of 2): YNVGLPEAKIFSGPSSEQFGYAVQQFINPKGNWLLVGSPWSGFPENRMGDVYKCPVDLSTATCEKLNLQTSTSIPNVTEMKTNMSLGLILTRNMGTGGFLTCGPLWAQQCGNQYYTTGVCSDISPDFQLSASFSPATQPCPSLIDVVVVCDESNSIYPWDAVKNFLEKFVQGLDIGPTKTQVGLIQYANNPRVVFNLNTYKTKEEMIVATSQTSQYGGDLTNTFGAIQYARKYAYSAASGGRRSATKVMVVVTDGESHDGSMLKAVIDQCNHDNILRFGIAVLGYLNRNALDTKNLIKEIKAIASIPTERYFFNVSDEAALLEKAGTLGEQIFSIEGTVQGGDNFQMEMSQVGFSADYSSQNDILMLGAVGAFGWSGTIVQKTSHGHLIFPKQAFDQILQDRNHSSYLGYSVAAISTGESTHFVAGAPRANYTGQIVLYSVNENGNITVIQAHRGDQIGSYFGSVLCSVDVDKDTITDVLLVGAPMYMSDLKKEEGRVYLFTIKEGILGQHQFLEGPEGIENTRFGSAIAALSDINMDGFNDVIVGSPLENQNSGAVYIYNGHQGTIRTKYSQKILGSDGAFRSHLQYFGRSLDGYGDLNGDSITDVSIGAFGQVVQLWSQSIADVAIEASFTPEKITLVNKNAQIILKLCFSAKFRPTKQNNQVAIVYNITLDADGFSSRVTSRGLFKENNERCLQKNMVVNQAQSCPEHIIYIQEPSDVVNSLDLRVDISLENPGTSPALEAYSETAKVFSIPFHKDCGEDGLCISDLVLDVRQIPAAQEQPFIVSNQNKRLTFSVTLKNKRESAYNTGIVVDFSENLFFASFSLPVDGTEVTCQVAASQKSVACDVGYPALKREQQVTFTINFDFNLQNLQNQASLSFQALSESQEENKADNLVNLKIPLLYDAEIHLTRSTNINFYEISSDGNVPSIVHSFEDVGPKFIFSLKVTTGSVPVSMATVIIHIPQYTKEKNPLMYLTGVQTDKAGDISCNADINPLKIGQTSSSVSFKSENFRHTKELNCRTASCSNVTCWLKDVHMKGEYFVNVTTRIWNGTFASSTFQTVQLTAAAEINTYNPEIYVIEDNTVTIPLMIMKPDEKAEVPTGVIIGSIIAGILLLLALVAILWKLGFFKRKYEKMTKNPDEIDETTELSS
Chain of α2β1 integrin (VLA-2) on HT1080 cells (P05556 21-798, chain 2 of 2): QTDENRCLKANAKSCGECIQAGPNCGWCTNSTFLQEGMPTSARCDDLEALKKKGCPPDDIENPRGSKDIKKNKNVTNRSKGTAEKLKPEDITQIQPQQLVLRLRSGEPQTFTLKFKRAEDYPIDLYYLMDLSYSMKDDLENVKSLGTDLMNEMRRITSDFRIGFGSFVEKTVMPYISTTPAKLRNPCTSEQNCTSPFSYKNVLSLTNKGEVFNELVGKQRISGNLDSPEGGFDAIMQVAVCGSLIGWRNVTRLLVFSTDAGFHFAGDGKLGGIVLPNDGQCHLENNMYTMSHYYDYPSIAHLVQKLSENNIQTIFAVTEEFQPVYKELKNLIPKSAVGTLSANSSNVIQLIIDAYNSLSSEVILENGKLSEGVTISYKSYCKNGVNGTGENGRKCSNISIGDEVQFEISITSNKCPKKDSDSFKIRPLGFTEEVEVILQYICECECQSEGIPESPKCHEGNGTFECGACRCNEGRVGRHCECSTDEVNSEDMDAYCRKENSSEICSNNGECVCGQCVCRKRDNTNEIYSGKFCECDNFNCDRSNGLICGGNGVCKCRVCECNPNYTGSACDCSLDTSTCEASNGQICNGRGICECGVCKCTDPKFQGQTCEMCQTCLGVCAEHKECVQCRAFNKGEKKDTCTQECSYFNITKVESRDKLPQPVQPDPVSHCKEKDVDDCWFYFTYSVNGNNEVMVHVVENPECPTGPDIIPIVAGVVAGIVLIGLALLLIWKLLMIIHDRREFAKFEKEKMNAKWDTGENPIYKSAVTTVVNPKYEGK

| ADCC fold increase (LDH release, HT1080 target cells with human PBMC, antibody 0.1 µg/ml) | Binder |
| --- | --- |
| 2 fold | B1 |
| 1.7 fold | B2 |
| 1.7 fold | B3 |
| 1.5 fold | B4 |
| 1.8 fold | B5 |

The binders below were run against complement component C1q (in baby rabbit complement) (rabbit) (assay: cell-based or functional assay).

| CDC fold increase (LDH release, HT1080 cells, baby rabbit complement, antibody 1 µg/ml) | CDC fold increase over the parental anti-VLA-2 IgG4 antibody (LDH release, HT1080 cells, baby rabbit complement, antibody 1 µg/ml) | Binder |
| --- | --- | --- |
| ≥ 6.6 fold |  | B1 |
|  | ≥ 9.6 fold | B6 |
| ≥ 6.4 fold |  | B7 |
| ≥ 9 fold |  | B3 |
| ≥ 5.6 fold |  | B8 |
| ≥ 8.6 fold |  | B9 |
